A short description of the data set: label from the status in PepcDB records.
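Note: failed if final PepcDB status was selected cloned or expressed and not failed if soluble or beyond.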

Regarding “MLVCYSVLACEILWDLPCSIMGSPLGHFTWDKYLKETCSVPAPVHCFKQSYTPPSNEFKISMKLEAQDPRNTTSTCIATVVGLTGARLRLRLDGSDNKNDFWRLVDSAEIQPIGNCEKNGGMLQPPLGFRLNASSWPMFLLKTLNGAEMAPIRIFHKEPPSPSHNFFKMGMKLEAVDRKNPHFICPATIGEVRGSEVLVTFDGWRGAFDYWCRFDSRDIFPVGWCSLTGDNLQPPGTKVVIPKNPYPASDVNTEKPSIHSSTKTVLEHQPGQRGRKPGKKRGRTPKTLISHPISAPSKTAEPLKFPKKRGPKPGSKRKPRTLLNPPPASPTTSTPEPDTSTVPQDAATIPSSAMQAPTVCIYLNKNGSTGPHLDKKKVQQLPDHFGPARASVVLQQAVQACIDCAYHQKTVFSFLKQGHGGEVISAVFDREQHTLNLPAVNSITYVLRFLEKLCHNLRSDNLFGNQPFTQTHLSLTAIEYSHSHDRYLPGETFVLGNSLARSLEPHSDSMDSASNPTNLVSTSQRHRPLLSSCGLPPSTASAVRRLCSRGVLKGSNERRDMESFWKLNRSPGSDRYLESRDASRLSGRDPSSWTVEDVMQFVREADPQLGPHADLFRKHEIDGKALLLLRSDMMMKYMGLKLGPALKLSYHIDRLKQGKF”, the protein production result is listed as “failed”.
Consider “MLVEDSGHHLPESADIENALDLLLKAQLERAFGPELAEHFWAARQPRTLDERLAFIRKCWIGVFKDSPLSTFGLERLEQLERLCRSKRRGRELSAAEHHQFAEELARLWEQVQRLLPRAAPETSYASSASAGGVHSGDAHTPATLSDAESAHAAPEAMRIEAPATSARSASGCMARVSSDVAAAATNVSLVVLDGENIAWAHGQNAVFSPKGIAIAVDFFRKRGYRCVVFLPDYRRKRADLPTVSASDALVFVPAGEYDDTFALGYAVGHDAILVTNDLLQDHLDQFYPDEGEAREALRKWLGSHRCSFTFVGDEFLPNPHFFLP”, for which the protein production result is given as “failed”.
As for “MLVFLTRFTPMNLIRNRWAQIFTQSILGVLIAGGTAWAGDPFRPNNPHNIGDQTEAAFEAIFRDGNYRGAEEILAGAIQAEPNEPLVYAMQASFAYDANDMEGMRKYAQQTLESAQRLAPSDPLRGNLYIAVGHFLEGSYLLKKGSYLQAVGKTGTVFEHLDKASAINPNDPELNLLRGYLDLFLSRYTPFSQSEQVISRFEQYAAPDYLRYRALATTYRDLEKYDLAMANIDRALAITPDNPELQYLKGQFLRNEGRRSMDLGKLQQAQQYYAMALQKQDQLSRALVVQLNHENNAVVDEIQKLAQNPSLKGF”, the protein production result is reported as “failed”.
To “MLVGPAPTTDGSAENTLNEKRLVHGSIAFWLGPRAPQTKTHRWTVYVRGARDPLEDLSLYIQKVEFVLHESFADPVRVVKEPPFCLTEHGWGEFEVIIRLFPISDPDKPVEMYHPLRLFPSVGQELTEKPVVSEHLDVLVFSQPAPEVERALHRSDVARMPSDCWGDLMPLFGGDLHQVEEEDLRKVQQARERVRQQIQATRLQYEALTAELARARTHALHRELS” belongs “not failed”.
The entry for “MLVGSQLIEIVIDSLRYENLKEILDEMFRDEVQKLKYFLEDVKEEDEELYNKIVDALKLFKENYEIEDIKIPKKIRVFLVKNNILFLNPQKGSLKPQSYLVWNAIKMLL” is “failed”; for “MLVRLKETDQRTMISRIKALAPPVQKAGAALLIDGHAELVARGGADGAHLPGIAALKEALPSLKPDRIAGVGGLTTRHHSMDAGEIGADYLLFGEPDAKGQRPSSEAIAERLDWWAELFEPPCVGFATSLEEAYDFAASGADFVLVGEFVWADPRGAKAALIEADATIKKAHAAALASQNPAGEHG” it is “failed”; for “MLVRLTMICNGATAATRRGSFPLDEPLEPRSLTRAKAMRGTLRHADRAWTAPALRARQIAEALSLEAAVEPLLADQDHGSWAGKSFEDVQAEQPGDIAAWLADPDAAPHGGESLADVARRASGLMEKLMAEPGHTIAMTHASVIRTAIVHVLGAPLAACWKIDIEPLSITDFRSDGRRWVLRACGVTSPKAAKPLLR” it is “failed”.
The entry for “MLVTKLAPDFKAPAVLGNNEVDEHFELSKNLGKNGAILFFWPKDFTFVCPTEIIAFDKRVKDFQEKGFNVIGVSIDSEQVHFAWKNTPVEKGGIGQVTFPMVADITKSISRDYDVLFEEAIALRGAFLIDKNMKVRHAVINDLPLGRNADEMLRMVDALLHFEEHGEVCPAGWRKGDKGMKATHQGVAEYLKENSIKL” is “failed”; for “MLWTQVYDPFSNITLSAMVAMLPLAILFYMLAVRRAKGHVAAACGLAGAFAATVAVWGMPAGLAVNATLYGVAMGLFPIIWIVLTAVWLYNMTVESGEFEIIKSSLARLTDDRRLQALFIAFAFGAFLEGTAGFGTPVAITAAMLMGLGFSPVYAGGICLIANTAPVAFGALGIPVIVASQVSGLDTLTLSQYVGRQLPVFSLIVPLWMTVVMCGFKRTMEVMPAIVVASVCFSGTQFIFADWHGPTLPDVMAAIVTIVGLLVLLRFWKPARTWHFADEKPEAATGETRHSTGEVLRAWAPYAILAVFVFFWGLGSVKTFLNNIFIMSFEWPGLHAAIAKTAPIVKADAPYAAKFTFNLISAGGTAILFAGLLSVPVMPGYGYGRAFGCLARTCYQLRFPILTIVMILGLAQLMNYSGMSSTLGIAFTHTGALFPFFAPIMGWLGVFLTGSNTSSNALFGSMQHATASAVGVDPYLTVAANATGGVTGKMISPQSISVATASTHTVGQEGALFRFALKHSIAMTLVICVLVTLQAYVIPWMLPAR” it is “failed”.
Take “MLYDLTVVQFSKMLKNLNAIFDKAEAFAELKKVDMDVLLNSRLAADQFNLIRQVQIACDTAKVGVARLTGQLETAPKHDDSETTLAELRQRIASVLTYLEGFSEADFANAATIQISQPRWQGKYLTGYEFAIEHAIPNLYFHITTAYGILRHNGVEVGKKDYLGAMPYKAPIL”: the protein production entry is listed as “not failed”.
To “MLYLAELLQGKNALITGAGRGIGRAVAIALAKEGVNVGLLARSEENLKAVAKEVEAEGVKAVIATADVSSYEEVTTAIETLKNGLGSIDILINNAGISKFGKFLELDVADWEKIIQVNLMGVYYATRAALPSMIEQQSGDIINISSTAGQKGAPVTSAYSASKFGVLGLTESLAMEVRKHNIRVTALTPSTVATDMAVDLGLTDGNPDKVMQAEDIAEFIVAQLKLNKRTFIKSAGLWSTNP” belongs “failed”.
To “MLYPSKPNNEALRIQTLRELNVLDTSPEERFDRLTRLAKRLFNVPIALVSLVDADRQWFKSCVGLDVSETSRDISFCGHAILGDQILTVPDAGLDERFHDNPLVVGAPGIRFYAGCPLTVTNGSKLGTLCLIDIKPRDLDDEDRALLRDLARMAEQELAAVQMASMDELTLLSNRRGFEALARHALGVCKRLEKPATLLFFDLNDFKQINDTYGHAEGDGALKTFADVLRIAFRESDVIGRLGGDEFVALLTAADHVETSAIMARLREILDERNATLKRGYDIRFSVGQIEYDAERHPDIEALLADADKAMYLHKQASKRARLEHHHHHH” belongs “failed”; to “MMAACWFGCAPAAELHAYTEDVPPLNYLDNGNVKGYSTEVLQLVAREAGFNLTVEVLPWLRAYAKARDTAGGLLYTVVRTPEREAQFQWVGPIGSRRIYMYRLGPRGNIRVDAASDLTRYRNGVLTGSATASQLQALGLQSGLNLDLGQSDAVNLKKLLLKRVDLIAMLDWAMAWQLRLQRLPENTVAPAWLLDGKLQYWFALNPHTPPEQVAKLQAALDRIRADGRLQAIRRRYRDD”, “failed”.
On to “MMAAREQRSFRQLSLLRQFEGQSLLCASMNIPGPIKCSESLNKTFQSIINLVKEDLRGRIIFEREVHQKTGWEYYCLSDLPVSELKTKMIAIETKISIGRLMDLDVLHLVNGIPQPISRQELGFPRRQCYICQNDAKVCSRSRKHSVIEMQEAIAKFIKINH”, for which the protein production entry was “failed”.
For “MMALTMDFSTQLLEHQVTAILLLDDQRQIHYANPAAEQLFSQSAQRMAQHAFDDLFHSPQFDLSTLMLPLNTGQSVTDSDVRIMIDEQPLYIELTSSPVAINKSLYLLVEIRQIE”, the protein production result is “failed”.
